Experiments:
holo-Transferrin human = molecular target: T1, holo-Transferrin human (Homo sapiens, UniProt P02787); assay: ITC; in solution, PBS pH 7.4, MicroCal PEAQ-ITC; fitting model: sequential binding sites, number of sites 2; conditions: both partners purified
T1 construct: human transferrin (serotransferrin), iron-saturated form, commercial preparation; same polypeptide as apo-Tf; also called holo-Tf; source: bought: Sigma-Aldrich

apo-Transferrin human = molecular target: T2, apo-Transferrin human (Homo sapiens, UniProt P02787); assay: as above; conditions: both partners purified
T2 construct: human transferrin (serotransferrin), iron-free form, commercial preparation; Iron-free form of transferrin; same polypeptide as holo-Tf; also called apo-Tf; source: bought: Sigma-Aldrich
T2 sequence (P02787 20-698): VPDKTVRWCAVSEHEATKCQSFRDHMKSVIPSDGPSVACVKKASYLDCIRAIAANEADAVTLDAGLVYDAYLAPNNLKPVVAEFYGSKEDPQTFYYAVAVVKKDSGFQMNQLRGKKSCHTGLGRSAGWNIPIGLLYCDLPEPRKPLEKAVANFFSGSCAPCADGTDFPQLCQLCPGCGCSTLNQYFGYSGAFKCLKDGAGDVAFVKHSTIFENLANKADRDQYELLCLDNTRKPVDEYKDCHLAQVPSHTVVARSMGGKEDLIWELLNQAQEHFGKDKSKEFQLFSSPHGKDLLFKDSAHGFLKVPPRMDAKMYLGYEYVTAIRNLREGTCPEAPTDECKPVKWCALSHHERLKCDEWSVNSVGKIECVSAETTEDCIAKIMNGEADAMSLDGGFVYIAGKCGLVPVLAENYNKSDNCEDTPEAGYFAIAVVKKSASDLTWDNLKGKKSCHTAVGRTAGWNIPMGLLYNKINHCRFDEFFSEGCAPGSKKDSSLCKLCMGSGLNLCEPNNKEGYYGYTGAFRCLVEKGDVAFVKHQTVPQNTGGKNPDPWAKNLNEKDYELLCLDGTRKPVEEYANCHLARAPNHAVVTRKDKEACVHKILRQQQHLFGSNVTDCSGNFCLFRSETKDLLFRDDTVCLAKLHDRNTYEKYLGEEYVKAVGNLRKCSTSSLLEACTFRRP

T1 sequence (P02787 20-698): as above

KD1 (sequential binding sites, site 1) (holo-Transferrin human) [nM] | KD2 (sequential binding sites, site 2) (holo-Transferrin human) [nM] | KD1 (sequential binding sites, site 1) (apo-Transferrin human) [nM] | KD2 (sequential binding sites, site 2) (apo-Transferrin human) [nM] | Binder
~0.44 | ~1.44 | ~99.4 |  | aTf1 nanobody (anti-human transferrin single-domain antibody) (VHH, variable domain of aTf1; HA-tag and His-tag follow it; source: generated in the bacterial periplasm, isolated and purified) VHH: QVQLVESGGGLVQPGGSLTLSCAASGFTFSTYAMKWVRQAPGMGLEYVASINNGGTSTFYSASVKGRFTISRDNAKNTLYLQLNSLKTEDTAMYYCARINEYSTRGQGTQVTVSS
~0.94 | ~0.75 | ~0.82 | ~14.5 | aTf2 nanobody (anti-human transferrin single-domain antibody) (VHH, variable domain of aTf2; long CDR3, cysteines in CDR1 and CDR3; HA-tag and His-tag follow it; source: generated in the bacterial periplasm, isolated and purified) VHH: QVQLVESGGGSVQAGGSLRLSCAVSGYMYSTNCMGWFRQAPGKEREGVAAIYTGGGSTYYPDSVKGRFTISQDNAKNTVYLQMNSLKPEDTAMYYCAAMRHCPYGGNWDHPVNYLGQGTQVTVSS

From paper PMC9307980, “High-Affinity Single-Domain Antibodies for Analyzing Human Apo- and Holo-Transferrin” (Acta Naturae, 2022)
